Results on two molecules are retold here after patent US20210009663A1 (published 2021).

For experiment [1], the target named is T1, Zika virus envelope protein, strain H/PF/2013 (French Polynesia 2013) (Zika virus). Put plainly: cell-based or functional assay.
The target in experiment [2] is T1, Zika virus envelope protein, strain ….

Some results are limits rather than exact numbers.

T1 sequence (A0A024B7W1 291-794): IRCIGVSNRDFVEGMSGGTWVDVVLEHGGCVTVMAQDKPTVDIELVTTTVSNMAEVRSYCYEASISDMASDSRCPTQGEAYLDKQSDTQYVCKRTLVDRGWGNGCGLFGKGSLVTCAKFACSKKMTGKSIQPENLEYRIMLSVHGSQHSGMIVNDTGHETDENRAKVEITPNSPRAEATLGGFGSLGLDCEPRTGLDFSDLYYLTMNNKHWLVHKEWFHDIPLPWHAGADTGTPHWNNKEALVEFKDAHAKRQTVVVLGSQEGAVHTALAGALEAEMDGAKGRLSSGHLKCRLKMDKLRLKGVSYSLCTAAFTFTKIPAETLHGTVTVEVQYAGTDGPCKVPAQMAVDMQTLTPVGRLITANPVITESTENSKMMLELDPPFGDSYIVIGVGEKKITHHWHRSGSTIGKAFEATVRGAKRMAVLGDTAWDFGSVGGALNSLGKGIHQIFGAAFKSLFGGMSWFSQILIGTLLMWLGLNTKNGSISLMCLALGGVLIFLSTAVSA

B1: mAb 8 (antibody, V domains shown)
VH: EVQLLESGGGLVQPGGSLRLSCAASGFSFSTYSMHWVRQAPGKGLEWVSAISGEGDSAYYADSVKGRFTISRDNSKNTLYLQMNKVRAEDTAVYYCVGGYSNFYYYYTMDAWGQGTMVTVSS
VL: DIVMTQSPASLSLSPGERATLSCRATQSISTFLAWYQQKPGQAPRLLIYDASTRASGIPARFSGSRSGTDFTLTITRLEPEDFAVYYCQQRYNWPPYSFGQGTKLEIK
As for B1, in experiment [1], the “ADE in THP1.2S cells, viral titers at peak enhancement” value is at least 3 fold and the PRNT50 was found to be 5.09 µg/mL.

B2: fusion loop targeting pan-flavivirus antibody 4G2 (antibody, V domains shown)
VH: EVQLQQSGPELVKPGTSVKISCKTSGYTFTEYTIHWVKQSHGKSLAWIGGIDPNSGGTNYSPNFKGKATLTVDKSSSTAYMDLRSLSSEDSAVYFCARIYHYDGYFDVWGAGTAVTVSS
VL: DIKMTQSPSSMYASLGERVTITCKASQDINSYLTWFQQKPGKSPKTLIYRANRLIDGVPSRFSGSGSGQDYSLTISSLDYEDMGIYYCLQYDEFPPTFGGGTKLEIKR
For B2, the Kd in experiment [2] was 10.3 µg/mL.

Broadly, the Kd is the concentration at which binding is half-saturated. Read a low Kd as tighter binding.
